One block for each binder: values may come before it. *1 amine or outer side, *2 acyl side, *3 side chain or, on linkers, in order; H or OH if unused. Bridges are numbered along the chain shown (N, C = ends). Where no end group is shown, it is not given here. [ ]: non-standard residue; d: D form. TATA = O=C(CC[*:1])N1CN(C(=O)CC[*:2])CN(C(=O)CC[*:3])C1; fluorescein = fluorescein (Fl) label on lysine; 1Nal = N[C@@H](Cc1cccc2ccccc12)C(=O)O; PABC = O=C(OCc1ccc(N[*:1])cc1)[*:2]; Glutaryl = O=C(CCCC(=O)[*:2])[*:1]; Hyp = O=C(O)[C@@H]1C[C@@H](O)CN1; hArg = N=C(N)NCCCC[C@H](N)C(=O)O; Cit = NC(=O)NCCC[C@H](N)C(=O)O; βAla = NCCC(=O)O; Sar = CNCC(=O)O
Legend:
[1] = target: T1, Human Nectin-4 (residues Gly32-Ser349; NCBI RefSeq: NP_112178.2) with C-terminal FLAG tag, biotinylated (human, UniProt Q96NY8 32-349, randomly biotinylated with EZ-Link Sulfo-NHS-LC-LC-Biotin); experiment: Biacore SPR, biotinylated Nectin-4 captured on streptavidin chip, peptide as analyte; n = 1
T1 construct: range 32-349; also called human Necin-4 protein; biotinylated Nectin-4; not shown: C-terminal FLAG tag
T1 sequence (looked up): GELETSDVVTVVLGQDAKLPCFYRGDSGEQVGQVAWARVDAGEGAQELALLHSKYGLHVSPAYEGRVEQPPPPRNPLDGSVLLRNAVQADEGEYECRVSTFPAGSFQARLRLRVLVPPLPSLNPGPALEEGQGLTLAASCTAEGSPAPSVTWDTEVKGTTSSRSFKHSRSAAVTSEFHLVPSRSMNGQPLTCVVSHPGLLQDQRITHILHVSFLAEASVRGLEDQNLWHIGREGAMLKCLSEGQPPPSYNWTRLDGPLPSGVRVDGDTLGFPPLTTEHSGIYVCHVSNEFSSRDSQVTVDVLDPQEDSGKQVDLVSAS

[2] = target: T2, Nectin-4 on MDA-MB-468 cells (UniProt Q96NY8 32-510, limits assumed); experiment: HCS cell-binding assay on MDA-MB-468 cells at 4°C: cells incubated with the test agent, washed, detected with a fluorescent antibody to MMAE; readout membrane mean intensity CH2 (RFU) [A]
T2 construct: whole, on cells; the cell line is a human breast cancer line; also called PVRL-4
T2 sequence (looked up): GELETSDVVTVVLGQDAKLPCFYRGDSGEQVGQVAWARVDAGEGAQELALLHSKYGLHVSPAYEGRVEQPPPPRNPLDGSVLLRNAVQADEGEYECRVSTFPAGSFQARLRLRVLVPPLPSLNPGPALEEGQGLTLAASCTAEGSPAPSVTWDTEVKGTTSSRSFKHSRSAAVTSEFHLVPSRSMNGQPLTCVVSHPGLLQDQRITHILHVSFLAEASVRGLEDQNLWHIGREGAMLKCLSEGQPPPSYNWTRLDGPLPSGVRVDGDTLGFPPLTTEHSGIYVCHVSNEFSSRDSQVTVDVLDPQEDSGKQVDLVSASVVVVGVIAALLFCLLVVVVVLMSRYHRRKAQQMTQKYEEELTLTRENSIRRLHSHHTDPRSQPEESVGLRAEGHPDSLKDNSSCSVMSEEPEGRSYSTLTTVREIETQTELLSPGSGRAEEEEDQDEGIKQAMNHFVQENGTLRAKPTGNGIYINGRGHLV
Procedure: (§1) HCS assay was used in Nectin-4 BDC binding study. Cells were incubated with test agent and then washed. Detection was by a fluorescent antibody to MMAE.

[3] = target: T1, Human Nectin-4 (residues Gly32-Ser349; …); experiment: Biacore SPR, biotinylated Nectin-4 captured on streptavidin chip, conjugate as analyte
[4] = target: T2, Nectin-4 on MDA-MB-468 cells; experiment: HCS cell binding assay on MDA-MB-468 cells, detection with fluorescent anti-MMAE antibody
Procedure: as §1

[5] = target: T2, Nectin-4 on MDA-MB-468 cells; experiment: historical Kd as printed in Table 44; assay not described
[6] = target: T3, human Nectin-4 (protein used in the fluorescence polarisation direct and competition binding assays) (human, UniProt Q96NY8 32-349); experiment: fluorescence polarisation competition; competitor: fluorescent tracer SEQ ID NO: 2; 6 experiments
T3 construct: It may be the Gly32-Ser349 FLAG construct described for SPR
T3 sequence (looked up): T1 sequence (looked up)
Procedure: (§2) Affinity of the peptides of the invention for human Nectin-4 (Ki) was determined using a fluorescence polarisation assay, in accordance with the methods disclosed in WO 2016/067035. Peptides of the invention with a fluorescent tag (either fluorescein, SIGMA or Alexa Fluor488™, Fisher Scientific) were diluted to 2.5 nM in PBS with 0.01% tween 20 or 50 mM HEPES with 100 mM NaCl and 0.01% tween pH 7.4 (both referred to as assay buffer). […] Measurements were conducted on a BMG PHERAstar FS equipped with an “FP 485 520 520” optic module which excites at 485 nm and detects parallel and perpendicular emission at 520 nm. The PHERAstar FS was set at 25° C. with 200 flashes per well and a positioning delay of 0.1 second, with each well measured at 5 to 10 minute intervals for 60 minutes. […] Data was analysed using Systat Sigmaplot version 12.0. mP values were fit to a user defined quadratic equation to generate a Kd value: f=ymin+ (ymax−ymin)/Lig*((x+Lig+Kd)/2-sqrt((((x+Lig+Kd)/2)\hat{ }2)−(Lig*x))).
(§3) Peptides were diluted to an appropriate concentration in assay buffer as described in the direct binding assay with a maximum of 5% DMSO, then serially diluted 1 in 2. […] Measurements were conducted as for the direct binding assay, however the gain was determined prior to the first measurement. […]

[7] = target: T1, Human Nectin-4 (residues Gly32-Ser349; …); experiment: Biacore SPR, biotinylated Nectin-4 captured on streptavidin chip, peptide as analyte; n = 4
[8] = target: T3, human Nectin-4 (protein used in the …); experiment: fluorescence polarisation competition; competitor: fluorescent tracer SEQ ID NO: 2; 2 experiments
Procedure: as §2, §3

[9] = target: T3, human Nectin-4 (protein used in the …); experiment: fluorescence polarisation direct binding assay
Procedure: as §2

B4: BCY8122: Ac-[B-Ala][Sar5]-(SEQ ID NO: 1), cyclised with TATA (peptide)
peptide: Ac-[βAla][Sar][Sar][Sar][Sar][Sar]CP[1Nal][dD]CM[hArg]DWSTP[Hyp]WC
modifications: linker 7-11-21 via TATA
notes: Bicyclic peptide
Kd [1]: 0.89 nM
Ki [8]: 3 nM

B5: ACPFGCHTDWSWPIWCA-Sar6-K(FI) (SEQ ID NO: 2) (peptide)
peptide: ACPFGCHTDWSWPIWCA[Sar][Sar][Sar][Sar][Sar][Sar]K(fluorescein)
modifications: linker 2-6-16 via TATA
notes: also called fluorescent peptide; tracer
Kd [9]: 5 nM

Now from value to binder:

Kd [1]: 0.372 nM
B1: BCY8116: (SEQ ID NO: 1), cyclised with TATA (peptide)
peptide: CPADCMRDWSTPPWC
modifications: core as printed Ci-P1-[1Nal]2-[dD]3-Cii-M4-[HArg]5-D6-W7-S8-T9-P10-[HyP]11-W12-Ciii (1Nal = 1-naphthylalanine, dD = D-Asp, HArg = homoarginine, HyP = hydroxyproline); Ci, Cii and Ciii covalently bound to the TATA scaffold
notes: Bicyclic peptide

EC50 (read off the curve) [2]: ~3 nM
Kd [3]: 5.12 nM
Kd [4]: 3.52 nM
Kd [5]: 5.18 nM
B2: BCY8245: MMAE-PABC-Cit-Val-Glutaryl-BCY8234 (BCY8234 = [B-Ala][Sar10]-(SEQ ID NO: 1), cyclised with TATA) (peptide)
peptide: {MMAE-PABC-Cit-Val-Glutaryl}-[βAla][Sar][Sar][Sar][Sar][Sar][Sar][Sar][Sar][Sar][Sar]CP[1Nal][dD]CM[hArg]DWSTP[Hyp]WC
modifications: linker 12-16-26 via TATA
notes: Bicyclic peptide drug conjugate (BDC) with an MMAE to drug ratio of 1; also called BT8009

Ki [6]: 2.7 nM
Kd [7]: 1.07 nM
B3: BCY8126: Ac-(SEQ ID NO: 1), cyclised with TATA (peptide)
peptide: CPADCMRDWSTPPWC
modifications: N-terminal acetyl; core as printed Ci-P1-[1Nal]2-[dD]3-Cii-M4-[HArg]5-D6-W7-S8-T9-P10-[HyP]11-W12-Ciii (1Nal = 1-naphthylalanine, dD = D-Asp, HArg = homoarginine, HyP = hydroxyproline); Ci, Cii and Ciii covalently bound to the TATA scaffold
notes: Bicyclic peptide
